The supplement of paper PMC11246515
± gives the standard deviation of the averaged measurements.

Experiment: total protein half-life in vivo (active degradation + dilution); higher = more stable protein
[1] = E. coli NCM3722 delta-clpP delta-lon delta-hslV, growth: N-lim chemostat, doubling time 6 h
[2] = wild type E. coli NCM3722, growth: C-lim chemostat, doubling time 12 h
[3] = E. coli NCM3722 delta-hslV, growth: N-lim chemostat, doubling time 6 h
[4] = wild type E. coli NCM3722, growth: C-lim chemostat, doubling time 3 h
[5] = wild type E. coli NCM3722, growth: C-lim chemostat, doubling time 6 h
[6] = wild type E. coli NCM3722, growth: N-lim chemostat, doubling time 6 h
[7] = wild type E. coli NCM3722, growth: N-lim chemostat, doubling time 12 h
[8] = wild type E. coli NCM3722, growth: P-lim chemostat, doubling time 12 h
[9] = E. coli NCM3722 delta-clpP, growth: N-lim chemostat, doubling time 6 h
[10] = E. coli NCM3722 delta-lon, growth: N-lim chemostat, doubling time 6 h
[11] = E. coli NCM3722 delta-smpB, growth: N-lim chemostat, doubling time 6 h
[12] = wild type E. coli NCM3722, growth: P-lim chemostat, doubling time 6 h

MAYRSAPLYEDVIWRTHLQPQDPTLAQAVRATIAKHREHLLEFIRLDEPAPLNAMTLAQWSSPNVLSSLLAVYSDHIYRNQPMMIRENKPLISLWAQWYIGLMVPPLMLALLTQEKALDVSPEHFHAEFHETGRVACFWVDVCEDKNATPHSPQHRMETLISQALVPVVQALEATGEINGKLIWSNTGYLINWYLTEMKQLLGEATVESLRHALFFEKTLTNGEDNPLWRTVVLRDGLLVRRTCCQRYRLPDVQQCGDCTLK
total protein half-life in vivo [1]: 3.38 ± 1.1 h

MYSSSRKRCPKTKWALKLLTAAFLAASPAAKSAVNNAYDALIIEARKGNTQPALSWFALKSALSNNQIADWLQIALWAGQDKQVITVYNRYRHQQLPARGYAAVAVAYRNLQQWQNSLTLWQKALSLEPQNKDYQRGQILTLADAGHYDTALVKLKQLNSGAPDKANLLAEAYIYKLAGRHQDELRAMTESLPENASTQQYPTEYVQALRNNQLAAAIDDANLTPDIRADIHAELVRLSFMPTRSESERYAIADRALAQYAALEILWHDNPDRTAQYQRIQVDHLGALLTRDRYKDVISHYQRLKKTGQIIPPWGQYWVASAYLKDHQPKKAQSIMTELFYHKETIAPDLSDEELADLFYSHLESENYPGALTVTQHTINTSPPFLRLMGTPTSIPNDTWLQGHSFLSTVAKYSNDLPQAEMTARELAYNAPGNQGLRIDYASVLQARGWPRAAENELKKAEVIEPRNINLEVEQAWTALTLQEWQQAAVLTHDVVEREPQDPGVVRLKRAVDVHNLAELRIAGSTGIDAEGPDSGKHDVDLTTIVYSPPLKDNWRGFAGFGYADGQFSEGKGIVRDWLAGVEWRSRNIWLEAEYAERVFNHEHKPGARLSGWYDFNDNWRIGSQLERLSHRVPLRAMKNGVTGNSAQAYVRWYQNERRKYGVSWAFTDFSDSNQRHEVSLEGQERIWSSPYLIVDFLPSLYYEQNTEHDTPYYNPIKTFDIVPAFEASHLLWRSYENSWEQIFSAGVGASWQKHYGTDVVTQLGYGQRISWNDVIDAGATLRWEKRPYDGDREHNLYVEFDMTFRF
total protein half-life in vivo [2]: > 16 h

MTKQPPIAKADLQKTQGNRAPAAVKNSDVISFINQPSMKEQLAAALPRHMTAERMIRIATTEIRKVPALGNCDTMSFVSAIVQCSQLGLEPGSALGHAYLLPFGNKNEKSGKKNVQLIIGYRGMIDLARRSGQIASLSARVVREGDEFSFEFGLDEKLIHRPGENEDAPVTHVYAVARLKDGGTQFEVMTRKQIELVRSLSKAGNNGPWVTHWEEMAKKTAIRRLFKYLPVSIEIQRAVSMDEKEPLTIDPADSSVLTGEYSVIDNSEE
total protein half-life in vivo [1]: 5.151 ± 0.025 h | total protein half-life in vivo [3]: 1.34 h | total protein half-life in vivo [4]: 2.62 ± 0.65 h | total protein half-life in vivo [5]: 3.79 ± 0.043 h | total protein half-life in vivo [2]: 7.28 ± 0.72 h | total protein half-life in vivo [6]: 1.57 h | total protein half-life in vivo [7]: 3.39 h | total protein half-life in vivo [8]: 4.09 ± 0.29 h

MTVETQLNPTQPVNQQIYRILRRDIVHCLIAPGTPLSEKEVSVRFNVSRQPVREAFIKLAENGLIQIRPQRGSYVNKISMAQVRNGSFIRQAIECAVARRAASMITESQCYQLEQNLHQQRIAIERKQLDDFFELDDNFHQLLTQIADCQLAWDTIENLKATVDRVRYMSFDHVSPPEMLLRQHLDIFSALQKRDGDAVERAMTQHLQEISESVRQIRQENSDWFSEE [P0ACM2]
total protein half-life in vivo [1]: 6.15 ± 0.24 h | total protein half-life in vivo [9]: 7.72 h | total protein half-life in vivo [3]: 5.98 ± 0.4 h | total protein half-life in vivo [10]: 5.9 ± 0.9 h | total protein half-life in vivo [11]: 4.12 ± 1.4 h | total protein half-life in vivo [4]: 3.42 ± 0.53 h | total protein half-life in vivo [5]: 6.44 ± 1.2 h | total protein half-life in vivo [2]: 10.2 ± 0.65 h | total protein half-life in vivo [6]: 5.71 ± 0.13 h | total protein half-life in vivo [7]: 11.7 ± 1.3 h | total protein half-life in vivo [12]: 5.18 ± 0.51 h | total protein half-life in vivo [8]: 9.7 ± 1.7 h

MTPTIELICGHRSIRHFTDEPISEAQREAIINSARATSSSSFLQCSSIIRITDKALREELVTLTGGQKHVAQAAEFWVFCADFNRHLQICPDAQLGLAEQLLLGVVDTAMMAQNALIAAESLGLGGVYIGGLRNNIEAVTKLLKLPQHVLPLFGLCLGWPADNPDLKPRLPASILVHENSYQPLDKGALAQYDEQLAEYYLTRGSNNRRDTWSDHIRRTIIKESRPFILDYLHKQGWATR
total protein half-life in vivo [1]: 4.82 ± 1 h | total protein half-life in vivo [9]: 3.94 ± 0.13 h | total protein half-life in vivo [3]: 4.1 ± 0.27 h | total protein half-life in vivo [10]: 4.4 ± 0.54 h | total protein half-life in vivo [11]: 3.98 ± 0.23 h | total protein half-life in vivo [4]: 2.93 ± 0.35 h | total protein half-life in vivo [5]: 4.8 ± 0.82 h | total protein half-life in vivo [2]: 9.24 ± 0.9 h | total protein half-life in vivo [6]: 3.89 ± 0.47 h | total protein half-life in vivo [7]: 7.96 ± 0.79 h | total protein half-life in vivo [12]: 5.01 ± 0.35 h | total protein half-life in vivo [8]: 9.93 ± 2.7 h

MLSTQFNRDNQYQAITKPSLLAGCIALALLPSAAFAAPATEETVIVEGSATAPDDGENDYSVTSTSAGTKMQMTQRDIPQSVTIVSQQRMEDQQLQTLGEVMENTLGISKSQADSDRALYYSRGFQIDNYMVDGIPTYFESRWNLGDALSDMALFERVEVVRGATGLMTGTGNPSAAINMVRKHATSREFKGDVSAEYGSWNKERYVADLQSPLTEDGKIRARIVGGYQNNDSWLDRYNSEKTFFSGIVDADLGDLTTLSAGYEYQRIDVNSPTWGGLPRWNTDGSSNSYDRARSTAPDWAYNDKEINKVFMTLKQQFADTWQATLNATHSEVEFDSKMMYVDAYVNKADGMLVGPYSNYGPGFDYVGGTGWNSGKRKVDALDLFADGSYELFGRQHNLMFGGSYSKQNNRYFSSWANIFPDEIGSFYNFNGNFPQTDWSPQSLAQDDTTHMKSLYAATRVTLADPLHLILGARYTNWRVDTLTYSMEKNHTTPYAGLVFDINDNWSTYASYTSIFQPQNDRDSSGKYLAPITGNNYELGLKSDWMNSRLTTTLAIFRIEQDNVAQSTGTPIPGSNGETAYKAVDGTVSKGVEFELNGAITDNWQLTFGATRYIAEDNEGNAVNPNLPRTTVKMFTSYRLPVMPELTVGGGVNWQNRVYTDTVTPYGTFRAEQGSYALVDLFTRYQVTKNFSLQGNVNNLFDKTYDTNVEGSIVYGTPRNFSITGTYQF
total protein half-life in vivo [4]: 3.33 ± 0.05 h | total protein half-life in vivo [2]: > 16 h

MKLLQRGVALALLTTFTLASETALAYEQDKTYKITVLHTNDHHGHFWRNEYGEYGLAAQKTLVDGIRKEVAAEGGSVLLLSGGDINTGVPESDLQDAEPDFRGMNLVGYDAMAIGNHEFDNPLTVLRQQEKWAKFPLLSANIYQKSTGERLFKPWALFKRQDLKIAVIGLTTDDTAKIGNPEYFTDIEFRKPADEAKLVIQELQQTEKPDIIIAATHMGHYDNGEHGSNAPGDVEMARALPAGSLAMIVGGHSQDPVCMAAENKKQVDYVPGTPCKPDQQNGIWIVQAHEWGKYVGRADFEFRNGEMKMVNYQLIPVNLKKKVTWEDGKSERVLYTPEIAENQQMISLLSPFQNKGKAQLEVKIGETNGRLEGDRDKVRFVQTNMGRLILAAQMDRTGADFAVMSGGGIRDSIEAGDISYKNVLKVQPFGNVVVYADMTGKEVIDYLTAVAQMKPDSGAYPQFANVSFVAKDGKLNDLKIKGEPVDPAKTYRMATLNFNATGGDGYPRLDNKPGYVNTGFIDAEVLKAYIQKSSPLDVSVYEPKGEVSWQ
total protein half-life in vivo [1]: 5.52 ± 0.41 h | total protein half-life in vivo [9]: 5.69 ± 0.46 h | total protein half-life in vivo [3]: 6.306 ± 0.01 h | total protein half-life in vivo [10]: 6.44 ± 0.24 h | total protein half-life in vivo [11]: 5.9 ± 0.07 h | total protein half-life in vivo [4]: 3.091 ± 0.03 h | total protein half-life in vivo [5]: 6.01 ± 0.52 h | total protein half-life in vivo [2]: 12.9 ± 0.35 h | total protein half-life in vivo [6]: 6.62 ± 0.42 h | total protein half-life in vivo [7]: 12.4 ± 1.3 h | total protein half-life in vivo [12]: 5.21 ± 0.21 h | total protein half-life in vivo [8]: 11.2 ± 0.18 h

MSEKPLTKTDYLMRLRRCQTIDTLERVIEKNKYELSDNELAVFYSAADHRLAELTMNKLYDKIPSSVWKFIR [P0ACE3]
total protein half-life in vivo [1]: 2.93 h | total protein half-life in vivo [5]: 1.69 ± 0.43 h | total protein half-life in vivo [2]: 0.865 h
